Data on 72 sequences can be found in the supplement of paper PMC10567573.

± gives the standard deviation.

A short description of the data set: protein stability index of a GFP-peptide fusion (GPS, HEK-293T) (PSI 1-6); higher = more stable.
Where [1] appears, read: treatment: DMSO, c terminus: a fixed tail appended.
Where [2] appears, read: treatment: MLN4924 1 uM, 8 h, c terminus: a fixed tail appended.
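Further: 24-mer peptide tiles fused after GFP, lentivirally expressed, FACS-sorted into six equal bins by GFP/DsRed ratio, decoded by Illumina sequencing, PSI is the read-weighted mean bin number.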

In the case of TLTREQTERLSHQITSRVVSAATQ [RTN2], the protein stability index by setting is: under setting [1], 3.68 ± 0.19; under setting [2], 3.75 ± 0.13.
For TMARIRRVYVSGLMKGGADLFVEN [APMAP], the protein stability index reads like this: under setting [1], 2.2 ± 0.3; under setting [2], 2.07 ± 0.25.
On the same counts, the results for TMLATRNFSAAKSLLKKPDGVKES [CAMK2D] are 4.36 ± 0.067 and 4.33 ± 0.51.
For TMPLYLEDDIRPDIKDDIYDPTYK [SCD], in that order: 4.46 ± 0.3 and 4.68 ± 0.17.
For TNLPKGACALLLTSVDHDRAPVVG [DLC1], in that order: 2.97 ± 0.17 and 2.85 ± 0.3.
In turn, TNRWSFDGIDRWIKEIDEHAPGVP [RAB40C] returned a protein stability index under setting [1] of 3.91 ± 0.17 and a protein stability index under setting [2] of 3.97 ± 0.22.
On the same counts, the results for TPAITVSNSCPAELPNIKREISET [TFE3] are 5.16 ± 0.35 and 4.86 ± 0.22.
On the same counts, the results for TPAMSSSSSSRVLLRQQLMRAQAQ [TFE3] are 3.65 ± 0.26 and 3.66 ± 0.42.
For TPNSKYVKLNVGGSLHYTTLRTLT [KCTD13], in that order: 2.23 ± 0.15 and 2.02 ± 0.25.
In the case of TPPEEQQEAEEPKARVLRSKSLCH [CDC25B], the protein stability index is 5.37 ± 0.26 under setting [1] and 5.37 ± 0.24 under setting [2].
In the case of TPSARRNYRIAGARLMRSNYPPPL [C6orf223], the protein stability index runs as follows: under setting [1], 2.92 ± 0.14; under setting [2], 3.08 ± 0.22.
For TPSFSGDSSSSCSDHCITSSDMMD [VDR], in that order: 5.11 ± 0.28 and 5.11 ± 0.12.
For TQSNRTSRLIGKKMNRSVSLTIY [WEE1], the protein stability index is, setting by setting: (treatment: DMSO, c terminus: native) 2.19 ± 0.14; (treatment: MLN4924 1 uM, 8 h, c terminus: native) 2.27 ± 0.15.
As for TRDLAGLRQFFKQLPSPPFLPAAG [CEBPD], the protein stability index by setting is: under setting [1], 2.56 ± 0.28; under setting [2], 2.44 ± 0.048.
Consider TRGRGGLLRDHIPRGKEELESLGG [MOG], for which the protein stability index is, setting by setting: under setting [1], 4.72 ± 0.081; under setting [2], 4.95 ± 0.19.
On the same counts, the results for TSANKITLVSSGSGTMGAAKVTGE [FLOT1] are 4.63 ± 0.12 and 4.69 ± 0.26.
On the same counts, the results for TSEGTTLSGVDLELVGSGYRMSLV [FCHO1] are 2.14 ± 0.48 and 2.29 ± 0.29.
Take TSFLQHPWDESGSGCLPPEPLFEA [FOXJ1]: the protein stability index by setting is: under setting [1], 3.56 ± 0.22; under setting [2], 3.62 ± 0.35.
On the same counts, the results for TSQKVARKFWWKNVKMIVLICVIV [VAMP8] are 2.42 ± 0.31 and 2.15 ± 0.29.
For TSSSTSGSSDKVYAHQMVRTDSRE [MLH1], in that order: 5.08 ± 0.17 and 5.1 ± 0.17.
TTALLHYQLPQMPDVVVRSFMTWL [MED27]: the protein stability index reads like this: under setting [1], 2.59 ± 0.32; under setting [2], 2.62 ± 0.3.
For TVEKDKVTGETRVLSSTTLLPRQP [PALM], in that order: 4.86 ± 0.23 and 4.87 ± 0.084.
For TVIFYGADSEQADIARMLYKDTCH [ZMYND11], in that order: 2.28 ± 0.17 and 2.68 ± 0.4.
For TWEHSNLEVNKPKNRYANVIAYDH [PTPRD], in that order: 2.98 ± 0.27 and 3.02 ± 0.32.
With TWGQIKKTTQEAEKLLERQGQAKT [CDK11A], the protein stability index under setting [1] was determined as 4.98 ± 0.11 and the protein stability index under setting [2] turned out to be 5.01 ± 0.072.
As for VAGILSLLLGTAYSFYLFHPLAYG [POMT2], the protein stability index runs as follows: under setting [1], 3.16 ± 0.24; under setting [2], 2.98 ± 0.3.
For VASYILASHNGISYKDLDVIFGVE [TENT5D], in that order: 2.93 ± 0.85 and 2.89 ± 1.4.
On the same counts, the results for VAVKKKLQLYFWKDREFHELQGDF [VPS39] are 2.12 ± 0.3 and 2.06 ± 0.58.
For VCMTFMKQIAGGDVTAKNIWLAES [INTS3], in that order: 2.53 ± 0.62 and 2.92 ± 0.6.
On to VDAGAEPGRSRMISQEEFARQLQL [LPCAT4], for which the protein stability index is 4.52 ± 0.27 under setting [1] and 4.5 ± 0.15 under setting [2].
On the same counts, the results for VDSLESHIPSQEVPGTQVGQGGKL [ZNF263] are 5.33 ± 0.2 and 5.16 ± 0.22.
For VEASCSVCLEYLKEPVIIECGHNF [TRIM39], in that order: 2.07 ± 0.39 and 2.25 ± 0.21.
For VEKVLRRWVDEEWPKRERGDPSRH [EDARADD], in that order: 2.97 ± 0.43 and 3.28 ± 0.67.
On to VETAFERLQQELEQQRCLLLARLR [TRIM15], for which the protein stability index is 2.81 ± 0.33 under setting [1] and 2.86 ± 0.3 under setting [2].
For VEYEERESEFDIEDEDKSEPEQTG [RBBP5], in that order: 5.64 ± 0.23 and 5.54 ± 0.32.
For VFGFIAAYVLSKYQYFVCPVEYRS [CDS1], in that order: 3.38 ± 0.39 and 3.15 ± 0.27.
As to VGDLMGSLAYCLACGGGHLLPYFY [DHCR7], the protein stability index reads like this: under setting [1], 3.12 ± 0.28; under setting [2], 3.47 ± 0.39.
With VGEKNCTGPPCDRQWTVSDWGPCS [ADAMTSL2], the protein stability index is 3.53 ± 0.3 under setting [1] and 3.32 ± 0.66 under setting [2].
On the same counts, the results for VGGYFVDKFVATMYHYLQFAYYKL [P3H4] are 3.67 ± 0.73 and 2.56 ± 0.048.
For VGRIIAPLLSGVAQEVSPCGPPSL [MFSD9], in that order: 2.72 ± 0.23 and 2.65 ± 0.29.
For VIFGVELPGNEEFQVVKDAVLDCL [TENT5D], in that order: 2.23 ± 0.41 and 2.25 ± 0.24.
Consider VISLLNEPNTFSPANVDASVMYRK [CDC34], for which the protein stability index is 2.92 ± 0.25 under setting [1] and 3.07 ± 0.21 under setting [2].
For VKLWKVSERDKRPEGYNLKDEEGR [PPP2R2B], in that order: 4.07 ± 0.5 and 4.336 ± 0.038.
On to VKVIRDFTTNKCKGFGFVTMTNYD [ELAVL3], for which the protein stability index is 2.35 ± 0.47 under setting [1] and 2.15 ± 0.22 under setting [2].
On the same counts, the results for VLALEERFGVRPKVTGYLISYSSM [MFSD9] are 2.17 ± 0.53 and 1.95 ± 0.099.
As for VLGAHRGHPVGLALEAAVHVQKLS [TRIM14], the protein stability index is, setting by setting: under setting [1], 2.63 ± 0.3; under setting [2], 2.91 ± 0.26.
On the same counts, the results for VLGTKVDAERDGVKVPTTLAEYCV [CDC34] are 4.073 ± 0.014 and 4.07 ± 0.12.
With VLLMAICIVSPDRPGVQDAALIEA [VDR], the protein stability index is, setting by setting: under setting [1], 2.8 ± 0.33; under setting [2], 2.77 ± 0.66.
With VLRGLARPEHPPPAPTGQDDPQSQ [TMEM175], the protein stability index reads like this: under setting [1], 5.39 ± 0.45; under setting [2], 5.54 ± 0.22.
For VLVAETTMARIRRVYVSGLMKGGA [APMAP], in that order: 2.17 ± 0.27 and 2.1 ± 0.28.
Take VNAKDNMWLTPLHRAVASRSEEAV [ANKRD44]: the protein stability index is 4.07 ± 0.29 under setting [1] and 4.02 ± 0.44 under setting [2].
With VNFMYLQSLLQPKSSSVDSELTSL [SMG5], the protein stability index is 2.21 ± 0.39 under setting [1] and 2.15 ± 0.39 under setting [2].
Under setting [2], VNLPISFFRKLLDCCQVSAPNRFF [NLN] showed a protein stability index of 2.62 ± 0.6.
As to VNYLPQNMTQDEFKSLFGSIGDIE [ELAVL3], the protein stability index is 3.8 ± 0.11 under setting [1] and 4 ± 0.27 under setting [2].
For VPIGASIYVIGDLDTGTNYDYVRE [GAN], in that order: 2.29 ± 0.45 and 2.21 ± 0.31.
On the same counts, the results for VQELCKQLHAKIDAAEEEKYDMEV [TNNI2] are 4.81 ± 0.28 and 4.74 ± 0.1.
On the same counts, the results for VQVENPERFSSAPCLLGSRVFSQG [TRIM35] are 3.09 ± 0.24 and 3.2 ± 0.22.
As for VRDSDSLAESEFESAAFSQGSRSG [PHTF1], the protein stability index is, setting by setting: under setting [1], 5.15 ± 0.26; under setting [2], 5.13 ± 0.28.
For VRVCDLLLKKKPPQQQHHKAKRNR [ANKRD17], in that order: 3.33 ± 0.39 and 3.38 ± 0.22.
On to VSLGLGQPWHAVMDIESLSVFTEP [FBXO33], for which the protein stability index was found to be 2.31 ± 0.56 under setting [1] and 1.99 ± 0.26 under setting [2].
On the same counts, the results for VSNTPLRTVDGSPMMKAAMYSVEI [PALM] are 2.27 ± 0.4 and 2.42 ± 0.17.
On the same counts, the results for VSPGSPPPPLPNHKYNTTSTSYSP [PLAGL1] are 4.27 ± 0.15 and 4.21 ± 0.27.
For VSTRLTVLREDQIPRGFPTIDMGP [PTPRD], in that order: 2.33 ± 0.47 and 2.53 ± 0.18.
Consider VTDKTLLICKYDFIMLSCVQLQRI [TPRG1], for which the protein stability index turned out to be 3.35 ± 0.84 under setting [1] and 3.48 ± 0.72 under setting [2].
For VTFGNKQKVLGKALSLIRFPLMTI [BTBD1], in that order: 2.4 ± 0.041 and 2.4 ± 0.75.
Turning to VTPAQNNLLQPNFEAAFGTTPSTS [SNAP91], the protein stability index is 4.52 ± 0.13 under setting [1] and 4.62 ± 0.14 under setting [2].
For VTSYCRSATLVGFTVGSVLGQILV [SLC19A2], in that order: 3.5 ± 0.39 and 2.84 ± 0.6.
For VVKYRRPMDVYETGIEYIVAQGPT [ADAMTSL2], in that order: 2.13 ± 0.5 and 2.25 ± 0.46.
For VVLCFSIANPNSLNHVKSMWYPEI [RHOBTB1], in that order: 4.05 ± 0.91 and 3.6 ± 0.21.
Turning to VVNSHSLSLLGKLTISAAFNIVYI [SLC22A15], the protein stability index by setting is: under setting [1], 3.07 ± 0.43; under setting [2], 3.09 ± 0.64.
On the same counts, the results for VVTRVVTGVYPRCLHASQWPVCAA [BRF1] are 2.54 ± 0.51 and 2.75 ± 0.23.
Turning to VWYYCTLTIRESILINNGSRIKGW [TMEM120A], the protein stability index worked out at 3.08 ± 0.61 under setting [1] and 2.96 ± 0.36 under setting [2].
